From the Human Domainome abundance scans (Beltran et al. 2025)
± gives the uncertainty stated by the source.

B1: Spectrin alpha chain, erythrocytic 1, residues 979 to 1036; numbered along this chain, P02549 (parent)
chain: EQRVMALYDFQARSPREVTMKKGDVLTLLSSINKDWWKVEAADHQGIVPAVYVRRLAH

Variants of: B1
Test: abundance fitness (aPCA) (normalised: wild type 0, dead -1); higher = more abundant; growth selection in yeast, the domain comes from the species named
Details: Homo sapiens

Variant	abundance fitness
EQRVMALYDFQARSPREVTMKWGDVLTLLSSINKDWWKVEAADHQGIVPAVYVRRLAH [K22W]	-0.725 ± 0.2
EQRVMALYDFQARSPREVTMKRGDVLTLLSSINKDWWKVEAADHQGIVPAVYVRRLAH [K22R]	-0.238 ± 0.11
EQRVMALYDFQARSPREVTMKCGDVLTLLSSINKDWWKVEAADHQGIVPAVYVRRLAH [K22C]	-0.586 ± 0.42
EQRVMALYDFQARSPREVTMKHGDVLTLLSSINKDWWKVEAADHQGIVPAVYVRRLAH [K22H]	-0.341 ± 0.42
EQRVMALYDFQARSPREVTMKQGDVLTLLSSINKDWWKVEAADHQGIVPAVYVRRLAH [K22Q]	0.303 ± 0.49
EQRVMALYDFQARSPREVTMKKGDVQTLLSSINKDWWKVEAADHQGIVPAVYVRRLAH [L26Q]	-0.429 ± 0.26
EQRVMALYDFQARSPREVTMKKGDVRTLLSSINKDWWKVEAADHQGIVPAVYVRRLAH [L26R]	-0.819 ± 0.38
EQRVMALYDFQARSPREVTMKKGDVVTLLSSINKDWWKVEAADHQGIVPAVYVRRLAH [L26V]	-0.767 ± 0.28
EQRVMALYDFQARSPREVTMKKGDVYTLLSSINKDWWKVEAADHQGIVPAVYVRRLAH [L26Y]	-0.173 ± 0.36
EQRVMALYDFQARSPREVTMKKGDVETLLSSINKDWWKVEAADHQGIVPAVYVRRLAH [L26E]	-0.5 ± 0.34
EQRVMALYDFQARSPREVTMKKGDVCTLLSSINKDWWKVEAADHQGIVPAVYVRRLAH [L26C]	-0.046 ± 0.44
EQRVMALYDFQARSPREVTMKKGDVITLLSSINKDWWKVEAADHQGIVPAVYVRRLAH [L26I]	-0.691 ± 0.11
EQRVMALYDFQARSPREVTMKKGDVFTLLSSINKDWWKVEAADHQGIVPAVYVRRLAH [L26F]	-0.237 ± 0.32
EQRVMALYDFQARSPREVTMKKGDVKTLLSSINKDWWKVEAADHQGIVPAVYVRRLAH [L26K]	-0.324 ± 0.39
EQRVMALYDFQARSPREVTMKKGDVGTLLSSINKDWWKVEAADHQGIVPAVYVRRLAH [L26G]	-0.65 ± 0.13
EQRVMALYDFQARSPREVTMKKGDVATLLSSINKDWWKVEAADHQGIVPAVYVRRLAH [L26A]	-0.493 ± 0.17
EQRVMALYDFQARSPREVTMKKGDVMTLLSSINKDWWKVEAADHQGIVPAVYVRRLAH [L26M]	-0.34 ± 0.18
EQRVMALYDFQARSPREVPMKKGDVLTLLSSINKDWWKVEAADHQGIVPAVYVRRLAH [T19P]	-0.613 ± 0.15
EQRVMALYDFQARSPREVWMKKGDVLTLLSSINKDWWKVEAADHQGIVPAVYVRRLAH [T19W]	-0.932 ± 0.14
EQRVMALYDFQARSPREVEMKKGDVLTLLSSINKDWWKVEAADHQGIVPAVYVRRLAH [T19E]	-0.73 ± 0.36
EQRVMALYDFQARSPREVRMKKGDVLTLLSSINKDWWKVEAADHQGIVPAVYVRRLAH [T19R]	-0.744 ± 0.21
EQRVMALYDFQARSPREVNMKKGDVLTLLSSINKDWWKVEAADHQGIVPAVYVRRLAH [T19N]	-0.122 ± 0.33
EQRVMALYDFQARSPREVAMKKGDVLTLLSSINKDWWKVEAADHQGIVPAVYVRRLAH [T19A]	-0.371 ± 0.17

Variant	abundance fitness
EQRVMALYDFQARSPREVSMKKGDVLTLLSSINKDWWKVEAADHQGIVPAVYVRRLAH [T19S]	0.249 ± 0.08
EQRVMALYDFQARSPREVVMKKGDVLTLLSSINKDWWKVEAADHQGIVPAVYVRRLAH [T19V]	-0.822 ± 0.11
EQRVMALYDFQARSPREVQMKKGDVLTLLSSINKDWWKVEAADHQGIVPAVYVRRLAH [T19Q]	-0.476 ± 0.16
EQRVMALYDFQARSPREVLMKKGDVLTLLSSINKDWWKVEAADHQGIVPAVYVRRLAH [T19L]	-0.369 ± 0.14
EQRVMALYDFQARSPREVTMKKGLVLTLLSSINKDWWKVEAADHQGIVPAVYVRRLAH [D24L]	-0.986 ± 0.26
EQRVMALYDFQARSPREVTMKKGTVLTLLSSINKDWWKVEAADHQGIVPAVYVRRLAH [D24T]	0.006 ± 0.41
EQRVMALYDFQARSPREVTMKKGQVLTLLSSINKDWWKVEAADHQGIVPAVYVRRLAH [D24Q]	0.579 ± 0.22
EQRVMALYDFQARSPREVTMKKGYVLTLLSSINKDWWKVEAADHQGIVPAVYVRRLAH [D24Y]	-0.805 ± 0.3
EQRVMALYDFQARSPREVTMKKGVVLTLLSSINKDWWKVEAADHQGIVPAVYVRRLAH [D24V]	-0.421 ± 0.27
EQRVMALYDFQARSPREVTMKKGGVLTLLSSINKDWWKVEAADHQGIVPAVYVRRLAH [D24G]	-0.883 ± 0.29
EQRVMALYDFQARSPREVTMKKGRVLTLLSSINKDWWKVEAADHQGIVPAVYVRRLAH [D24R]	-0.689 ± 0.28
EQRVMALYDFQARSPREVTMKKGMVLTLLSSINKDWWKVEAADHQGIVPAVYVRRLAH [D24M]	-0.527 ± 0.15
EQRVMALYDFQARSPREVTMKKGSVLTLLSSINKDWWKVEAADHQGIVPAVYVRRLAH [D24S]	-0.256 ± 0.24
EQRVMALYDFQARSPREVTMKKGDVLALLSSINKDWWKVEAADHQGIVPAVYVRRLAH [T27A]	-0.975 ± 0.32
EQRVMALYDFQARSPREVTMKKGDVLCLLSSINKDWWKVEAADHQGIVPAVYVRRLAH [T27C]	-0.627 ± 0.32
EQRVMALYDFQARSPREVTMKKGDVLNLLSSINKDWWKVEAADHQGIVPAVYVRRLAH [T27N]	-0.246 ± 0.17
EQRVMALYDFQARSPREVTMKKGDVLPLLSSINKDWWKVEAADHQGIVPAVYVRRLAH [T27P]	-0.382 ± 0.44
EQRVMALYDFQARSPREVTMKKGDVLKLLSSINKDWWKVEAADHQGIVPAVYVRRLAH [T27K]	0.229 ± 0.15
EQRVMALYDFQARSPREVTMKKGDVLQLLSSINKDWWKVEAADHQGIVPAVYVRRLAH [T27Q]	-0.228 ± 0.28
EQRVMALYDFQARSPREVTMKKGDVLLLLSSINKDWWKVEAADHQGIVPAVYVRRLAH [T27L]	-0.752 ± 0.27
EQRVMALYDFQARSPREVTMKKGDVLVLLSSINKDWWKVEAADHQGIVPAVYVRRLAH [T27V]	-0.396 ± 0.088
EQRVMALYDFQARSPREVTMKKGDVLILLSSINKDWWKVEAADHQGIVPAVYVRRLAH [T27I]	-0.521 ± 0.29
EQRVMALYDFQARSPREVTMKKGDVLSLLSSINKDWWKVEAADHQGIVPAVYVRRLAH [T27S]	-0.808 ± 0.12
